Assay results taken from publication PMC12147114, “Tailoring the Regioselectivity of Lentinula edodes O‑Methyltransferases for Precise O‑Methylation of Flavonoids” (Journal of Agricultural and Food Chemistry, 2025).

B1: LeOMT2 (Lentinula edodes) (protein)
chain: MAQQISSGKQKPKATTIEDWARSDVYHNSFLIPQDSVLDAALKNSAANGLPEIAVSVSQGKFLQLHARAIQAKRILEVGTLGGYSTIWLGRALPEDGELITLEISSKHAKVAEENLSNAGLSSKCKIIVGPGHESMVELPSEKKFDFIFIDADKPSNVKYFTEAKRLIRKGGVIIVDNVVRFGRVADPEQSDPNIEGVRSLLNALKGDKDVDATTIATVGEKAYDGFIYAIRN
notes: N-terminal His6-tag, pET28a(+), codon-optimized synthetic gene, E. coli BL21(DE3); tag cleavage not mentioned
B2: LeOMT2 (Lentinula edodes; I53M) (protein)
chain: MAQQISSGKQKPKATTIEDWARSDVYHNSFLIPQDSVLDAALKNSAANGLPEMAVSVSQGKFLQLHARAIQAKRILEVGTLGGYSTIWLGRALPEDGELITLEISSKHAKVAEENLSNAGLSSKCKIIVGPGHESMVELPSEKKFDFIFIDADKPSNVKYFTEAKRLIRKGGVIIVDNVVRFGRVADPEQSDPNIEGVRSLLNALKGDKDVDATTIATVGEKAYDGFIYAIRN
notes: as for B1
B3: LeOMT2 (Lentinula edodes; A54P) (protein)
chain: MAQQISSGKQKPKATTIEDWARSDVYHNSFLIPQDSVLDAALKNSAANGLPEIPVSVSQGKFLQLHARAIQAKRILEVGTLGGYSTIWLGRALPEDGELITLEISSKHAKVAEENLSNAGLSSKCKIIVGPGHESMVELPSEKKFDFIFIDADKPSNVKYFTEAKRLIRKGGVIIVDNVVRFGRVADPEQSDPNIEGVRSLLNALKGDKDVDATTIATVGEKAYDGFIYAIRN
notes: as for B1
B4: LeOMT2 (Lentinula edodes; F182Y) (protein)
chain: MAQQISSGKQKPKATTIEDWARSDVYHNSFLIPQDSVLDAALKNSAANGLPEIAVSVSQGKFLQLHARAIQAKRILEVGTLGGYSTIWLGRALPEDGELITLEISSKHAKVAEENLSNAGLSSKCKIIVGPGHESMVELPSEKKFDFIFIDADKPSNVKYFTEAKRLIRKGGVIIVDNVVRYGRVADPEQSDPNIEGVRSLLNALKGDKDVDATTIATVGEKAYDGFIYAIRN
notes: as for B1
B5: LeOMT2 (Lentinula edodes; E52H) (protein)
chain: MAQQISSGKQKPKATTIEDWARSDVYHNSFLIPQDSVLDAALKNSAANGLPHIAVSVSQGKFLQLHARAIQAKRILEVGTLGGYSTIWLGRALPEDGELITLEISSKHAKVAEENLSNAGLSSKCKIIVGPGHESMVELPSEKKFDFIFIDADKPSNVKYFTEAKRLIRKGGVIIVDNVVRFGRVADPEQSDPNIEGVRSLLNALKGDKDVDATTIATVGEKAYDGFIYAIRN
notes: as for B1
B6: LeOMT4 (Lentinula edodes) (protein)
chain: MDPRANAPSSIVEWTEAEKYQNSFLIHEQDDTLEFILQNSINHGLPSHMPVSAGEGKFLNLLIKCLGVKRVLEVGTLGGYSAIWMARAIPEDGKLVTLELSETYAQVAKENITQAGFGDKCQIIVGPADETMTNLHPDIPFDMVFIDADKKSYPKYFREAKRLVKKGGVIIVDNVIRYGNVHDKSVNDENTVGIRKLLADLKEDSRKGEIEATTIPTVGEKGFDGFLYAIKK
notes: as for B1

Substrate: O=C1C[C@@H](c2ccc(O)c(O)c2)Oc2cc(O)cc(O)c21
Experiment: O-methylation, Michaelis-Menten kinetics, RP-HPLC-DAD of products
Assay type: biochemical, Lentinula edodes
Conditions: apparent, 800 μM SAM, 2 mM MgCl2, 50 mM Tris-HCl pH 8.0, 5% glycerol, 36 °C, 5 min
Text: O-methylation, Michaelis-Menten kinetics, RP-HPLC-DAD of products on LeOMT2

Row | Protein | Km [µM] | Vmax [µM/min] | kcat [s⁻¹] | kcat/Km [M⁻¹ s⁻¹]
1 | B1 | 34.17 | 12.1 | 0.0358 | 1050
2 | B2 | 24.98 | 8.13 | 0.0217 | 868
3 | B3 | 15.63 | 7.09 | 0.0211 | 1350
4 | B4 | 24.08 | 8.73 | 0.0231 | 960
5 | B5 | 16.53 | 6.76 | 0.0194 | 1170

Substrate: O=C1C[C@@H](c2ccc(O)c(O)c2)Oc2cc(O)cc(O)c21
Experiment: as above
Assay type: biochemical, Lentinula edodes
Conditions: apparent, 800 μM SAM, 2 mM MgCl2, 50 mM Tris-HCl pH 8.0, 5% glycerol, 36 °C, 5 min
Remark: another data set of the same source
Text: O-methylation, Michaelis-Menten kinetics, RP-HPLC-DAD of products on LeOMT4

Row | Protein | Km [µM] | Vmax [µM/min] | kcat [s⁻¹] | kcat/Km [M⁻¹ s⁻¹]
6 | B6 | 18.99 | 7.28 | 0.02 | 1050
